Assay results: publication PMC4712875

Biological target: FGFR3 of chick prechordal mesoderm cells (chick (endogenous in prechordal mesoderm cells)) (UniProt P18460)
Assay: immunostaining of cells or tissue; isolated st6 chick prechordal mesoderm cells cultured until st8, incubated with proNodal-FLAG, detected with anti-FLAG; non-targeted cells

Sequence of UniProt P18460 (P18460 20-806): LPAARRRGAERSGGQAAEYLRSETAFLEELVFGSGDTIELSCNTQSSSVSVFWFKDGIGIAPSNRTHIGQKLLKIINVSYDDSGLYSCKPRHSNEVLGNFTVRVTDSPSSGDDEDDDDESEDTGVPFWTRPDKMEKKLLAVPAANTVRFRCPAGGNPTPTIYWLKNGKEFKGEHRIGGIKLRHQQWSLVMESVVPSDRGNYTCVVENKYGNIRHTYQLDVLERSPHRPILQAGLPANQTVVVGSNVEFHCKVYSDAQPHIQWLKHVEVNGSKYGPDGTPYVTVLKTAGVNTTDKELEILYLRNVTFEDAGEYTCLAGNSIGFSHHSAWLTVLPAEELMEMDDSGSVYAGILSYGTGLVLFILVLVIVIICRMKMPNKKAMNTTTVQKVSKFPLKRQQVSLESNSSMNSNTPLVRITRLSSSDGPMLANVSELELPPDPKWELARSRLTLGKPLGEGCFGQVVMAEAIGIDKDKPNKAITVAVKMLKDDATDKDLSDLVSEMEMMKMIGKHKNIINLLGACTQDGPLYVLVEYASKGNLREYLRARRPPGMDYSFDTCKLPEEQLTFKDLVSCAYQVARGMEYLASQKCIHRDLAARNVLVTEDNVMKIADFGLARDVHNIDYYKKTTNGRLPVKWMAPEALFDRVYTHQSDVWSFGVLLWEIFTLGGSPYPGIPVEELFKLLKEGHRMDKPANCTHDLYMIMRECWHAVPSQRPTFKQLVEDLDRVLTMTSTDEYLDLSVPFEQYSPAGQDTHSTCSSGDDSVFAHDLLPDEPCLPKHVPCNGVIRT

“recombinant proNodal (recombinant Nodal cleavage mutant resistant to proprotein convertases), FLAG-tagged (from UniProt P43021 27-354) (ligand)” showed a percent of DAPI+ nuclei closely associated with anti-FLAG of 79%.
